Test results from patent US6991908 (Takeda / Millennium, dated 2006).
Values belong to the binder of their own block, whether it stands above or below them. Positions of bridges follow the written chain, without caps; N, C: chain ends. No end group written: not given here.

Tests used:
[1] = target: rat SLC-1 (rat, UniProt P97639 1-353); assay: cell-based or functional assay
[2] = target: T1, human SLC-1 (human); assay: radioligand competition against [125I]-labeled MCH(4-19) on human SLC-1-expression CHO cell membrane fraction (2.5 µg/ml), filtration, γ-counter
T1 construct: also called hSLC-1; human SLC-1(S)

- agonist activity, GTPγS binding assay (fold decrease against MCH) [1]: ~10 times
B1: Des-[Asp1, Phe2, Asp3, Met4, Leu5]-MCH (MCH(6-19)) (peptide)
peptide: RCMLGRVYRPCWQV
modifications: disulfide 2-11

- IC50 [2]: 0.2 nM
B2: melanin concentrating hormone (MCH), rat MCH (ligand)
peptide: DFDMLRCMLGRVYRPCWQV
modifications: disulfide 7-16
notes: also called synthetic MCH; synthetic rat MCH

- agonist activity, GTPγS binding assay (fold decrease against MCH) [1]: ~200 times
B3: Des-[Asp1, Phe2, Asp3, Met4, Leu5, Arg6]-MCH (MCH(7-19)) (peptide)
peptide: CMLGRVYRPCWQV
modifications: disulfide 1-10
